Experimental data: patent US20220204643A1 (published 2022)

Key:
[1] = molecular target: T1, growth factor receptor bound protein 2, transcript variant 1 (human, UniProt P62993 1-217)
T1 construct: HuProt array protein, full-length recombinant from yeast; also called GRB2

LIM homeobox 5 = molecular target: T2, LIM homeobox 5 (human, UniProt Q9H2C1 1-402)
T2 construct: HuProt array protein, full-length recombinant from yeast; also called LHX5
T2 sequence: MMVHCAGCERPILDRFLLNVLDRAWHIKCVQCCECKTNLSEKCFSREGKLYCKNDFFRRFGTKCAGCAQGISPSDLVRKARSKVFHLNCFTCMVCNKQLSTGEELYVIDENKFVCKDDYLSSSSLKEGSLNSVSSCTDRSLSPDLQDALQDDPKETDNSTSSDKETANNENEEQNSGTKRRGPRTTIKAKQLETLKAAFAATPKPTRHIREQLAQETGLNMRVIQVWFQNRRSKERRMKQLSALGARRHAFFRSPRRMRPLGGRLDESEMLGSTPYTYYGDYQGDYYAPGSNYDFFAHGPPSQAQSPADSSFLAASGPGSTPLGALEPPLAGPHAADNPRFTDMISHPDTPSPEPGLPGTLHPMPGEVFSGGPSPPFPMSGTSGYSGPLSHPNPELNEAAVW

[2] = molecular target: T3, FA complementation group G (human, UniProt O15287 1-622); test: protein array
T3 construct: on protein array; also called FANCG
T3 sequence: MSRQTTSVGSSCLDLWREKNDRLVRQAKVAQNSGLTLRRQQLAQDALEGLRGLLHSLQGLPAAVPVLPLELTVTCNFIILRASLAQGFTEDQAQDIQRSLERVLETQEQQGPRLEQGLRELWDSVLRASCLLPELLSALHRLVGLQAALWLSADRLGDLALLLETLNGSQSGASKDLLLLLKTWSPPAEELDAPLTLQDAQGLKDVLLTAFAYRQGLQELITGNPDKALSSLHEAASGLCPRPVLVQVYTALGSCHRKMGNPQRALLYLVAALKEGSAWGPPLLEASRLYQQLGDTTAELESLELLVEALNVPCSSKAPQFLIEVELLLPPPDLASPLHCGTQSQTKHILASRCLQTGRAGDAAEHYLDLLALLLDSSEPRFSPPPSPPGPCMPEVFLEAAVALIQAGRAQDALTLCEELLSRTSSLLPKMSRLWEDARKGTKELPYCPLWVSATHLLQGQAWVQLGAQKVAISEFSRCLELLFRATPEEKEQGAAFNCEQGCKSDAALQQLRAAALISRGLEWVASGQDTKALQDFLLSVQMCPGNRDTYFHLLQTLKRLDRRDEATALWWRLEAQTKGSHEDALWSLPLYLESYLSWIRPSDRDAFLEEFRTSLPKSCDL

[3] = molecular target: T4, homeobox and leucine zipper encoding (human, UniProt Q8IX15 25-550)
T4 construct: HuProt array protein, full-length recombinant from yeast; also called HOMEZ
T4 sequence: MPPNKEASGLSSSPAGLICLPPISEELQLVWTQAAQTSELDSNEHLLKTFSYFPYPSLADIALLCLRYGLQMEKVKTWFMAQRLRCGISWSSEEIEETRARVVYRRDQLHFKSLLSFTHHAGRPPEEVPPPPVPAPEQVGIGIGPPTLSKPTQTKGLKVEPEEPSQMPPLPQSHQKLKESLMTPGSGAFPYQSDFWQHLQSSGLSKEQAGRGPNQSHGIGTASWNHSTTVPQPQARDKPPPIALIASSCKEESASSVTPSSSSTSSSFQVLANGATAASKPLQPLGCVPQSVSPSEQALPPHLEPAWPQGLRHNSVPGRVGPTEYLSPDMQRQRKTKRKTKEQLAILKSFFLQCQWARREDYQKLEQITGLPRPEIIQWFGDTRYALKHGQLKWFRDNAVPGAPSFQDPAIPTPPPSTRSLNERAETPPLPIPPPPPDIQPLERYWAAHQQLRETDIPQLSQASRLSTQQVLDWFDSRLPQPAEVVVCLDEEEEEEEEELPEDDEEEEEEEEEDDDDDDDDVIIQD

[4] = molecular target: T5, BAR/IMD domain containing adaptor protein 2, transcript variant 3 (human, UniProt Q9UQB8 1-511)
T5 construct: HuProt array protein, full-length recombinant from yeast; also called BAIAP2
T5 sequence: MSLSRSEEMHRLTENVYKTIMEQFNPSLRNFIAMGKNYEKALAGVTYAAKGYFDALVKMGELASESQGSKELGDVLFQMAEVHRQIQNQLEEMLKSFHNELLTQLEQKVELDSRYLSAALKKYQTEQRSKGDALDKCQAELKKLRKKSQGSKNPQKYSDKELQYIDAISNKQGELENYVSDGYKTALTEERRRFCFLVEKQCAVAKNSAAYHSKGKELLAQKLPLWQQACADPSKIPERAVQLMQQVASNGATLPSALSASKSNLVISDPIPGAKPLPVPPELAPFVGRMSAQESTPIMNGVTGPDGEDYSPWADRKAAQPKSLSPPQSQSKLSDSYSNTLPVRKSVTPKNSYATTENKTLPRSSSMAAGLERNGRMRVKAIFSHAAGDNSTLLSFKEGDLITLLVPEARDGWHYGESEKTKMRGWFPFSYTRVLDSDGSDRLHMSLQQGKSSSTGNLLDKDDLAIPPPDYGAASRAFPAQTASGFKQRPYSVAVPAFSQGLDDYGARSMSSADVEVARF

[5] = molecular target: T6, teashirt zinc finger homeobox 2, transcript variant 1 (human, UniProt Q9NRE2 1-1034)
T6 construct: HuProt array protein, full-length recombinant from yeast; also called TSHZ2
T6 sequence: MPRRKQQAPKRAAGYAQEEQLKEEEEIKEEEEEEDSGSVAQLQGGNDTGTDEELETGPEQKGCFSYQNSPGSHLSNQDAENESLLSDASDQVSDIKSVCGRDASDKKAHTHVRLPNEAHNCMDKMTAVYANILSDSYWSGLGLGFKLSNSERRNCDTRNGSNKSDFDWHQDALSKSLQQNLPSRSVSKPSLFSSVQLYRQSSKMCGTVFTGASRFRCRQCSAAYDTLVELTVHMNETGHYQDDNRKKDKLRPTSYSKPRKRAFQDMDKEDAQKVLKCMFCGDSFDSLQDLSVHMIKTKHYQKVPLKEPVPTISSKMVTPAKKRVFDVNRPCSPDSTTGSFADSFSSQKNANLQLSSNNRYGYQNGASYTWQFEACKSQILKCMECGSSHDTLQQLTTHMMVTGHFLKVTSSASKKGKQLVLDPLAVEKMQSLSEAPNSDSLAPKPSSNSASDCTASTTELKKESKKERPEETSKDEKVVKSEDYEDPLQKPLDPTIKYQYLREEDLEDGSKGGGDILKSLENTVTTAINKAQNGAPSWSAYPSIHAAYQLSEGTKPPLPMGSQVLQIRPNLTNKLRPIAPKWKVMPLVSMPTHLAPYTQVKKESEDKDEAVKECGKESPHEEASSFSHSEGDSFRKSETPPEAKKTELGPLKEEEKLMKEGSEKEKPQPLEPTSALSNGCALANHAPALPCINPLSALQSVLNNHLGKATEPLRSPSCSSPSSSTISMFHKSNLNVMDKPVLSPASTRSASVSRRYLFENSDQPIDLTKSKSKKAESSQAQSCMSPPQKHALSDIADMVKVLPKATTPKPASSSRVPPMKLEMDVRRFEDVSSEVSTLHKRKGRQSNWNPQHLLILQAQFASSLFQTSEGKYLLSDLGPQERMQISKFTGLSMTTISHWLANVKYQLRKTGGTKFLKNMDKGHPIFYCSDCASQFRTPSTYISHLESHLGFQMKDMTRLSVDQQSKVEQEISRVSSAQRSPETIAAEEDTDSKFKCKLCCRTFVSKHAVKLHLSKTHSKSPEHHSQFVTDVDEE

[6] = molecular target: T7, Atpase secretory pathway ca2+ transporting 1 (human, UniProt P98194 1-909)
T7 construct: HuProt array protein, full-length recombinant from yeast; also called ATP2C1
T7 sequence: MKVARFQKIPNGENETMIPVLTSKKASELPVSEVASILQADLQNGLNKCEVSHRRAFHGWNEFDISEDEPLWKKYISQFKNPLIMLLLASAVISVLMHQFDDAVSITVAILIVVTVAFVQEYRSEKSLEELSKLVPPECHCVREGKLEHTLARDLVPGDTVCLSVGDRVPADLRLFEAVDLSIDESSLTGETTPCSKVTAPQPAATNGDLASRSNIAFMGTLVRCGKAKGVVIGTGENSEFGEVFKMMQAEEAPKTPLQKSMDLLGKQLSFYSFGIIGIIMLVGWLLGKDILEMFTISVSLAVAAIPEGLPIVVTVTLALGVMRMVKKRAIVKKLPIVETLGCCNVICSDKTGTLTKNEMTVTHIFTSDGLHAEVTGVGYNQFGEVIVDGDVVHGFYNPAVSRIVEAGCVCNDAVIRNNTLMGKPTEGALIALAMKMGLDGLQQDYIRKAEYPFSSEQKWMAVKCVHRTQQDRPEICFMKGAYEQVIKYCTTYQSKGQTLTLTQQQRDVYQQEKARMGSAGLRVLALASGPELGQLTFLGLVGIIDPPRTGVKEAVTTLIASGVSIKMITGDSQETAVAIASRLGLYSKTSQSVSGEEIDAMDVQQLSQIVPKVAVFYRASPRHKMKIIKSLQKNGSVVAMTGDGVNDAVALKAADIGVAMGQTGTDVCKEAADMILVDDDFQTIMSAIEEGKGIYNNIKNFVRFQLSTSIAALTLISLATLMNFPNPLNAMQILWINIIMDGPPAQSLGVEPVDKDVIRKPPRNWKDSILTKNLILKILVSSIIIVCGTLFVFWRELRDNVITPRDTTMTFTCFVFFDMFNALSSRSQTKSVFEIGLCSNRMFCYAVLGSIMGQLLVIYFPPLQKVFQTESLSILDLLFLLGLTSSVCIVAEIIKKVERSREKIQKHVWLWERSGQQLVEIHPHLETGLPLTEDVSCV

[7] = molecular target: T8, leucine rich repeat containing 28, transcript variant 1 (human, UniProt Q86X40 1-367)
T8 construct: HuProt array protein, full-length recombinant from yeast; also called LRRC28
T8 sequence (Q86X40 whole entry, change not shown): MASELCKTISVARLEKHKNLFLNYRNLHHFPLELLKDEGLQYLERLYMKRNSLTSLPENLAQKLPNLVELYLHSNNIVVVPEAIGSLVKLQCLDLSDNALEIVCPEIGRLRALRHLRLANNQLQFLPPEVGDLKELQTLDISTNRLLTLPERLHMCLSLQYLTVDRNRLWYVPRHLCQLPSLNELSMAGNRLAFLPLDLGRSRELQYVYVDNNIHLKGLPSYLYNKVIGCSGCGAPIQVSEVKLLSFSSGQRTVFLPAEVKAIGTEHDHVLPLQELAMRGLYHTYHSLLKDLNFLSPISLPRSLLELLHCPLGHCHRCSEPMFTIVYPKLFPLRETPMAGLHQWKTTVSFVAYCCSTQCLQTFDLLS

B1: TCOL1009 (antibody, V domains shown)
VH: PVQLVQSGAEVKKPGASVKVSCKASGDTFPNYVISWVRQAPGQGLEWVGCINTNNGKTNYVQKLQGRVILTTDTSTNTANMELRSLRFDDTAVYYCARERGQVRSYGMDVWGQGTAVTVSS
VL: PYELTQPPSVSVSPGQTANITCSGDKLGDICVCWYQQKPGQSPVLVIYQHNKRPSGIPERFSGSNSGNTATLTISATQATDEAIYYCQSWDSSSVLFGGGTKLTVLG
notes: detected with anti-human IgG Fc
B1: binds [1]; binds (LIM homeobox 5).

B2: TBRE1024 (antibody, V domains shown)
VH: PVQLQESGPGLVKPSETLSLTCTVSGGSISSDNYYWSWLRQHPGKGLEWIGYIYFSVTTYYNPSLKSRVTISLDTSKNQFSLKLSSVTAADTAVYYCASGYVSFDLWGQGTLVTVSS
VL: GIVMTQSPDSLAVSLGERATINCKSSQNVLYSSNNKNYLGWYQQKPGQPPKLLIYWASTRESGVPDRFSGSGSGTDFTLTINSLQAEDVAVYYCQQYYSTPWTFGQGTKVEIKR
notes: VH/VL only
B2: binds [2].

B3: TCOL1006 (antibody, V domains shown)
VH: EVQLVESGGGLVQPGGSLRLSCAASGFPPRSFAMSWVRQAPGKGLEWVSSISGLGNSIYYAESVKGRFITSRDNSKSTVFLLMNSLRAEDTAVYYCAKSAFGGVPDGFDIWGQGTMVTVSS
VL: QSVVTQPPSASGPPGQTVTISCSGGRSNVASHAVHWYQHLPGTAPKLLIYNDHQRPSGVPDRFSGSKSGPSASLAISGLRSEDEADYYCATWDDSLGGRVVFGGGTKLTVLG
notes: as for B1
B3: binds [3]; binds [4].

B4: TESO1006 (antibody, V domains shown)
VH: QLHLQESGPGLVKPSETLSLTCTVSGGSVSSSSYYWGWVRQPPGKGLEWIGHVYYSGRTYYNPSLKSRATISLDTSKNQFSLKLSSLTATDTAVYYCATIVAAYSYGFEFDPWGQGILVIVSS
VL: QSVLTQPPSVSAAPGQKVTISCSGGSSNIGNNYVSWYQQLPGTAPKLIIYDNDKRPAGIPDRFSGSKSGSSATLGITGLQNGDEAEYYCGTWDSSLGGGVFGGGTKVTVLG
notes: as for B1
B4: binds [5]; binds [6].

B5: TESO1003 (antibody, V domains shown)
VH: QVQLVESGGGVVQPGRSLRLSCAASGFTFSNYDMHWVRQAPGKGLEWVTVVSYDGTNKYYAESVQGRFTISRDNSKNTLYLQMNSLRTEDTAVYYCAKEGGWGNTVTTSYYYYGMDVWGQGTTVTVSS
VL: QIVLTQSPATLSLSPGERATLSCRASQSVSNYLAWYQQKPGQAPRLLIYDASNRATGIPARFSGSGSGTDFTLTISSLEPEDFAVYYCQQRSNWPPYTFGQGTKLDIKR
notes: as for B1
B5: binds [7].
